Results reported in article doi:10.1101/2020.09.10.291773 (bioRxiv, 2020).

Target: T1, HY5-S36A-GFP (Arabidopsis, UniProt O24646 1-168, S36A)
T1 sequence (looked up): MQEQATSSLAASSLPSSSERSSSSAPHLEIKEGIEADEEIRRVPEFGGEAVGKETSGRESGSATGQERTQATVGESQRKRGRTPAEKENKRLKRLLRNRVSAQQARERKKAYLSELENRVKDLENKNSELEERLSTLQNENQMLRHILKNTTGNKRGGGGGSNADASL
Assay: co-IP

B1: COP1 (CONSTITUTIVE PHOTOMORPHOGENIC1), endogenous (natural protein, Arabidopsis (endogenous in seedlings), UniProt P43254 1-675, looked up)
chain: MEEISTDPVVPAVKPDPRTSSVGEGANRHENDDGGSGGSEIGAPDLDKDLLCPICMQIIKDAFLTACGHSFCYMCIITHLRNKSDCPCCSQHLTNNQLYPNFLLDKLLKKTSARHVSKTASPLDQFREALQRGCDVSIKEVDNLLTLLAERKRKMEQEEAERNMQILLDFLHCLRKQKVDELNEVQTDLQYIKEDINAVERHRIDLYRARDRYSVKLRMLGDDPSTRNAWPHEKNQIGFNSNSLSIRGGNFVGNYQNKKVEGKAQGSSHGLPKKDALSGSDSQSLNQSTVSMARKKRIHAQFNDLQECYLQKRRQLADQPNSKQENDKSVVRREGYSNGLADFQSVLTTFTRYSRLRVIAEIRHGDIFHSANIVSSIEFDRDDELFATAGVSRCIKVFDFSSVVNEPADMQCPIVEMSTRSKLSCLSWNKHEKNHIASSDYEGIVTVWDVTTRQSLMEYEEHEKRAWSVDFSRTEPSMLVSGSDDCKVKVWCTRQEASVINIDMKANICCVKYNPGSSNYIAVGSADHHIHYYDLRNISQPLHVFSGHKKAVSYVKFLSNNELASASTDSTLRLWDVKDNLPVRTFRGHTNEKNFVGLTVNSEYLACGSETNEVYVYHKEITRPVTSHRFGSPDMDDAEEEAGSYFISAVCWKSDSPTMLTANSQGTIKVLVLAA
fold co-immunoprecipitated COP1 against the HY5-S36D-GFP line: 4 times
